The values below come from article PMC6648325.

Where “and” joins values, the source holds several entries; their conditions need not be identical. Equal values may be shown once.

Holding throughout (settings): remark: other sources report otherwise
In assay [1] the target is T1, Cys106-oxidized DJ-1 recombinant protein (human), Q99497.
T1 chain: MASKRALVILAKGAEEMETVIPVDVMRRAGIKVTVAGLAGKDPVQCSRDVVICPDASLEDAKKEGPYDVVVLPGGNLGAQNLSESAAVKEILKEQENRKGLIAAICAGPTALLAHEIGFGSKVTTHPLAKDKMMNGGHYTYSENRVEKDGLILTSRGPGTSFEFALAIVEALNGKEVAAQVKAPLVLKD
The assay is described as follows: SDS-PAGE of HMW bands.

Assay [2] concerns the target T1, Cys106-oxidized DJ-1 recombinant …. The assay is described as follows: SEC. On the technique in general: In gel filtration, larger molecules generally elute earlier.
Assay [3] has the same target. The assay is described as follows: high-speed atomic force microscopy.
Assay [4] has as its target T2, DJ-1 recombinant protein (human), Q99497.
T2 chain: T1 chain
The assay is described as follows: SEC.

Assay [5] has the same target. The experiment in a line: high-speed atomic force microscopy.

B1: Cys106-oxidized DJ-1 recombinant protein, Q99497 1-189 (natural protein)
chain: T1 chain
The term stoichiometry N denotes a count of units in the complex or per binding partner. With B1, the stoichiometry N in assay [1] was 2 and 4; in assay [2], 2; in assay [3] it was 4 and 6.

B2: DJ-1 recombinant protein, Q99497 1-189 (natural protein)
chain: T1 chain
Regarding B2, the stoichiometry N in assay [4] and in assay [5] was 2 throughout.
